Experimental data from patent publication US10294303B2, “Method of treating or ameliorating metabolic disorders using binding proteins for gastric inhibitory peptide receptor (GIPR) in combination with GLP-1 agonists” (AMGEN INC., priority 2015, dated 2019).

Key:
[1] = rapid degradation by the DPP-IV enzyme; cited from earlier work
[2] = system: C57BL/6 DIO mice; assay: Chronic treatment of DIO mice with anti-GIPR 2.63.1 in combination with Liraglutide, Dulaglutide or Exendin IV; assay type: in vivo, mouse; details: 2.63.1 25 mg/kg once a week, Dulaglutide 1 mg/kg twice a week, Liraglutide 0.3 mg/kg once a day, Exendin IV 0.01 mg/kg once a day, i.p.
Procedure: Male C57BL/6 DIO mice were purchased from Jackson laboratory. Mice were singly housed and continued on high fat diet (60 kcal % fat, Research diet) after arrival. […] All treatments were administrated intraperitoneally. Blood samples were collected from tail vein or cardiac puncture at termination. Serum insulin levels were determined by using mouse high range insulin ELISA (ALPCO Diagnostics). The triglyceride levels were measured using an infinity triglyceride assay kit (Thermo Scientific). Total cholesterol was measured using an infinity total cholesterol kit (Thermo Scientific). Body composition was determined using the minispec whole body composition analyzer (Bruker). For oral glucose tolerance test, mice were fasted for 4 h. Glucose levels were measured and blood samples were taken from the tail vein before the OGTT was initiated. A bolus of glucose (2 g/kg) was given orally by a gavage needle. Glucose levels were measured at 15, 30 and 60 min after glucose administration using a glucose meter (Abbott).

[3] = system: high fat diet (HFD)-induced obese C57BL/6 mice; assay: Mouse pharmacodynamic assay (IPGTT following exogenous [D-Ala2]-GIP) to test anti-murine GIPR antibody 2.63.1; assay type: in vivo; details: antibody i.p. the day before IPGTT, [D-Ala2]-GIP 50 nmol/kg i.p.
Procedure: FIG. 1 provides an overview of the pharmacodynamics assay to test anti-murine GIPR antibodies. Seven week old male high fat diet (HFD)-induced obese C57BL/6 mice were purchased from Jackson Labs. After arrival, mice were continued on high fat diet with Research Diets D12492 (60 kcal % fat) (Research diet) for one to two weeks. Mice were randomized by body weight and were administrated intraperitoneally with testing GIPR antibody or vehicle (10 mM acetate, 150 mM NaCl, pH 5.0) the day before intraperitoneal glucose tolerance test (IPGTT). Mice were fasted for 7 hours and IPGTT was performed immediately following exogenous GIP [D-Ala2]-GIP (50 nmol/kg, Phoenix Pharmaceuticals) given intraperitoneally. Blood samples were taken from tail nick at the times indicated. Glucose was measured using AlphaTrak blood glucose meter (Abbott). Blood insulin level was determined by using Insulin (mouse) ultra-sensitive EIA kit (ALPCO Diagnostics). […] 2.63.1 comprises a light chain with the following sequence: […]

[4] = system: C57BL/6 DIO mice; assay: Chronic treatment of diet induced obese mice with GIPR antibody 2.63.1; assay type: in vivo, mouse; details: twice a week i.p. for 6 weeks
Procedure: FIG. 3 provides an overview of the study used to determine the effects of chronic treatment of diet induced obese (DIO) mice with the 2.63.1 antibody. 18 week old male C57BL/6 DIO mice fed Research Diets D12492 (60 kcal % fat) were randomized into groups. Treatments were given twice a week intraperitoneally for 6 weeks. Blood glucose levels were measured from tail nick using a glucose meter (Abbott) after mice were fasted for 4 hours. Insulin levels were determined using mouse high range insulin ELISA (ALPCO Diagnostics). Triglyceride levels were measured using an Infinity triglyceride assay kit (Thermo Scientific). Total cholesterol was measured using an Infinity total cholesterol kit (Thermo Scientific). Body composition was determined using the minispec whole body composition analyzer (Bruker).
For intraperitoneal glucose tolerance test (IPGTT), mice were fasted for 4 hours. Glucose levels were measured and blood samples were taken from the tail vein before IPGTT was initiated. IPGTT was performed by intraperitoneal injection of glucose (1 g/kg body weight). Glucose levels were measured at 20, 40 and 60 minutes after glucose administration by using a glucose meter (Abbott). FIG. 4.
At termination, liver and epididymal fat was isolated and weighed using a balance. One piece of each tissue was fixed in 10% buffered formalin for 24 hours.

[5] = system: C57BL/6 DIO mice; assay: Chronic treatment of DIO mice with anti-GIPR 2.63.1 in combination with Liraglutide; assay type: in vivo, mouse; details: 2.63.1 30 mg/kg twice a week, Liraglutide 0.3 mg/kg once a day, i.p.
Procedure: FIG. 24 provides an overview of the study used to determine the effects of chronic treatment of diet induced obese (DIO) mice with the mouse anti-mouse GIPR Ab (2.63.1) in combination with the GLP-1R agonist Liraglutide. Male C57BL/6 DIO mice were purchased from Jackson laboratory. Mice were single housed and continued on high fat diet (60 kcal % fat, Research Diets). Mice at 35 weeks old were randomized into groups and received one of the following treatments: A: vehicle (10 mM acetate, 9% sucrose, pH 5.2, and saline); B: 2.63.1 (30 mg/kg, twice a week); C: Liraglutide (0.3 mg/kg, once a day) and D: 2.63.1 (30 mg/kg, twice a week) and Liraglutide (0.3 mg/kg, once a day). All treatments were administrated intraperitoneally.
Blood samples were collected from tail vein or cardiac puncture at termination. Serum insulin levels were determined by using mouse high range insulin ELISA (ALPCO Diagnostics). Serum leptin levels were measured using mouse and rat leptin ELISA kit from BioVendor. The triglyceride levels were measured using an infinity triglyceride assay kit (Thermo Scientific). Total cholesterol was measured using an infinity total cholesterol kit (Thermo Scientific). At termination, liver, epididymal fat and inguinal fat were isolated and weighed using a balance.
Body composition was determined using the minispec whole body composition analyzer (Bruker).
For the oral glucose tolerance test (OGTT), mice were fasted for 4 hours. Glucose levels were measured and blood samples were taken from the tail vein before the OGTT was initiated. A bolus of glucose (2 g/kg) was given orally by a gavage needle. Glucose levels were measured at 15, 30 and 60 min after glucose administration using a glucose meter (Abbott).

[6] = system: C57BL/6 DIO male mice; assay: Anti-GIPR 2.63.1 treatment in DIO mice pre-treated with Liraglutide (two-phase study); assay type: in vivo, mouse; details: Liraglutide 0.05 or 0.3 mg/kg daily for 2 weeks, then 2.63.1 25 mg/kg weekly added
Excerpt: FIG. 41 provides an overview of the study used to determine the effects of chronic treatment of diet induced obese (DIO) mice pre-treated with Liragutide with the mouse anti-mouse GIPR Ab (2.63.1). C57BL/6 DIO male mice (17 week old) fed Research Diets D12492 (60% kcal fat) for 13 weeks were randomized into groups. During phase 1 (pre-treatment phase), animals were intraperitoneally dosed daily for 2 weeks with either 1) saline (0.9% sodium chloride), 2) Liraglutide (BAChem #H-6724-0005) at 0.05 mg/kg, 3) Liraglutide at 0.3 mg/kg, or 4) Liraglutide 0.3 mg/kg in combination with a weekly dose of mouse anti-mouse GIPR Ab (2.63.1) in vehicle (10 mM acetate, 9% sucrose, pH 5.2) at 25 mg/kg;ll other groups (1-3) received a weekly dose of vehicle. During phase 2 (experimental stage) mouse anti-mouse GIPR Ab (2.63.1) treatment was initiated in the animals pre-treated with Liraglutide. Blood glucose levels were measured from retro orbital sinus using a glucose meter (Abbott) after mice were fasted for 4 hours before phase 1, end of phase 1, and at the end of the experiment. Insulin levels were determined using mouse high range insulin ELISA (ALPCO Diagnostics). […] Plasma was analyzed on the Olympus chemistry analyzer for liver enzymes, cholesterol, triglycerides, and NEFA. Plasma was analyzed in mouse metabolism multiplex assay (MMHMAG-44K—EMD Millipore) for mouse hormones.

Molecule: GLP-1: 31-amino acid peptide derived from the proglucagon gene
- half-life [1]: approximately 2 minutes

Molecule: Dulaglutide: GLP1R agonist; also known LY2189265, Eli Lilly and Company [reference compound]
- effect on fat mass loss of the combination GIPR Ab 2.63.1 with GLP-1R agonist (Liraglutide, Dulaglutide or Exendin IV) [2]: synergistic effect
- effect on weight loss of the combination GIPR Ab 2.63.1 with GLP-1R agonist (Liraglutide, Dulaglutide or Exendin IV) [2]: synergistic effect

B1: 2.63.1: anti-murine GIPR antibody; light chain SEQ ID NO: 3161, heavy chain SEQ ID NO: 3162 (antibody)
heavy: MGWSYIILFLVATATDVHSQVQLQQPGAELVKPGASVKLSCRASGYTFTSNWMHWVKQRPRQGLEWIGEINPSNGRSNYNEKFKTKATLTVDKSSSTAYMQLSSLTSEDSAVYYCARFYYGTSWFAYWGQGTLVAVSAAKTTPPSVYPLAPGSAAQTNSMVTLGCLVKGYFPEPVTVTWNSGSLSSGVHTFPAVLQSDLYTLSSSVTVPSSTWPSETVTCNVAHPASSTKVDKKIVPRDCGCKPCICTVPEVSSVFIFPPKPKDVLTITLTPKVTCVVVDISKDDPEVQFSWFVDDVEVHTAQTQPREEQFASTFRSVSELPIMHQDWLNGKEFKCRVNSAAFPAPIEKTISKTKGRPKAPQVYTIPPPKEQMAKDKVSLTCMITDFFPEDITVEWQWNGQPAENYKNTQPIMDTDGSYFVYSKLNVQKSNWEAGNTFTCSVLHEGLHNHHTEKSLSHSPGK
light: MKLPVRLLVLMFWIPASSSDVVMTQTPLSLPVSLGDQASISCRSSQSLVHSNGDTYLHWYLQKPGQSPKLLIYKVSNRFSGVPDRFSGSGSGTDFTLKISRVEAADLGVYFCSQSTHVPPFTFGGGTKLEIKRADAAPTVSIFPPSSEQLTSGGASVVCFLNNFYPKDINVKWKIDGSERQNGVLNSWTDQDSKDSTYSMSSTLTLTKDEYERHNSYTCEATHKTSTSPIVKSFNRNEC
- GIP induced glucose levels ([3]; FIG. 2A): Antagonized
- GIP induced insulin secretion ([3]; FIG. 2B): antagonizes GIP induced insulin secretion
- fasting glucose levels ([4]; 4 hours fast, FIG. 7): lower fasting glucose levels
- body weight gain ([4]; FIG. 4): Reduced Body Weight Gain
- fat mass ([4]; FIG. 5): lower fat mass
- epididymal white adipose tissue weights ([4]; FIG. 6): lower epididymal white adipose tissue weights
- insulin levels ([4]; FIG. 8): lower insulin levels
- serum total cholesterol ([4]; FIG. 10A): lower serum total cholesterol
- serum triglycerides ([4]; FIG. 10B): Lower
- hepatocyte microvesicular change and corresponding lipid accumulation ([4]; FIG. 11): reduction in hepatocyte microvesicular change and corresponding lipid accumulation
- liver weight ([4]; FIG. 12A): reduced liver weight
- liver triglyceride content ([4]; FIG. 12B): reduced
- inflammation and infiltrating macrophages surrounding adipocytes in epididymal white adipose tissue ([4]; FIG. 13): reduced inflammation and reduced infiltrating macrophages cells surrounding adipocytes
- glucose tolerance (IPGTT) ([4]; glucose 1 g/kg i.p., FIG. 9): improved glucose tolerance
- body weight [5]: prevented weight gain
- glucose levels [5]: lowered glucose
- insulin levels [5]: lowered
- effect on fat mass loss of the combination GIPR Ab 2.63.1 with GLP-1R agonist (Liraglutide, Dulaglutide or Exendin IV) [2]: synergistic effect
- effect on weight loss of the combination GIPR Ab 2.63.1 with GLP-1R agonist (Liraglutide, Dulaglutide or Exendin IV) [2]: synergistic effect
- weight loss in animals pre-treated with Liraglutide [6]: weight loss effect of anti-GIPR can be observed in animals already receiving GLP-1R agonist therapy
